# Data as given in US20160272683A1 (Novo Nordisk, published 2016).
# Numbered stars: 1 amine (or outer) side, 2 acyl side, 3 side chain; on linkers, the order of the positions; unused ones are H or OH. * marks the point of attachment. C20 diacid = O=C(O)CCCCCCCCCCCCCCCCCCC(=O)*; C18 diacid = O=C(O)CCCCCCCCCCCCCCCCC(=O)*; γGlu = O=C(O)[C@H](CCC(=O)[*:2])N[*:1]
# B1: [N-terminal(C20 diacid-gGlu), des1, 23Y, 30S, 31G, 32A]mimylin (peptide)
# peptide: {C20 diacid-γGlu}-ASELSTAALGRLSAELHELATYPRTETGSGAP-NH2
# SMILES: CC(C)C[C@H](NC(=O)[C@H](C)NC(=O)[C@H](C)NC(=O)[C@@H](NC(=O)[C@H](CO)NC(=O)[C@H](CC(C)C)NC(=O)[C@H](CCC(=O)O)NC(=O)[C@H](CO)NC(=O)[C@H](C)NC(=O)CC[C@H](NC(=O)CCCCCCCCCCCCCCCCCCC(=O)O)C(=O)O)[C@@H](C)O)C(=O)NCC(=O)N[C@@H](CCCNC(=N)N)C(=O)N[C@@H](CC(C)C)C(=O)N[C@@H](CO)C(=O)N[C@@H](C)C(=O)N[C@@H](CCC(=O)O)C(=O)N[C@@H](CC(C)C)C(=O)N[C@@H](Cc1c[nH]cn1)C(=O)N[C@@H](CCC(=O)O)C(=O)N[C@@H](CC(C)C)C(=O)N[C@@H](C)C(=O)N[C@H](C(=O)N[C@@H](Cc1ccc(O)cc1)C(=O)N1CCC[C@H]1C(=O)N[C@@H](CCCNC(=N)N)C(=O)N[C@H](C(=O)N[C@@H](CCC(=O)O)C(=O)N[C@H](C(=O)NCC(=O)N[C@@H](CO)C(=O)NCC(=O)N[C@@H](C)C(=O)N1CCC[C@H]1C(N)=O)[C@@H](C)O)[C@@H](C)O)[C@@H](C)O
# B2: [N-terminal(C18 diacid-gGlu), des1, 4Q, 30S, 31G]mimylin (peptide)
# peptide: {C18 diacid-γGlu}-ASQLSTAALGRLSAELHELATLPRTETGSGSP-NH2
# SMILES: CC(C)C[C@H](NC(=O)[C@H](C)NC(=O)[C@H](C)NC(=O)[C@@H](NC(=O)[C@H](CO)NC(=O)[C@H](CC(C)C)NC(=O)[C@H](CCC(N)=O)NC(=O)[C@H](CO)NC(=O)[C@H](C)NC(=O)CC[C@H](NC(=O)CCCCCCCCCCCCCCCCC(=O)O)C(=O)O)[C@@H](C)O)C(=O)NCC(=O)N[C@@H](CCCNC(=N)N)C(=O)N[C@@H](CC(C)C)C(=O)N[C@@H](CO)C(=O)N[C@@H](C)C(=O)N[C@@H](CCC(=O)O)C(=O)N[C@@H](CC(C)C)C(=O)N[C@@H](Cc1c[nH]cn1)C(=O)N[C@@H](CCC(=O)O)C(=O)N[C@@H](CC(C)C)C(=O)N[C@@H](C)C(=O)N[C@H](C(=O)N[C@@H](CC(C)C)C(=O)N1CCC[C@H]1C(=O)N[C@@H](CCCNC(=N)N)C(=O)N[C@H](C(=O)N[C@@H](CCC(=O)O)C(=O)N[C@H](C(=O)NCC(=O)N[C@@H](CO)C(=O)NCC(=O)N[C@@H](CO)C(=O)N1CCC[C@H]1C(N)=O)[C@@H](C)O)[C@@H](C)O)[C@@H](C)O
# B3: [N-terminal(C20 diacid-gGlu), -1E, 1A, 23Y, 30S, 31G]mimylin (peptide)
# peptide: {C20 diacid-γGlu}-EAASELSTAALGRLSAELHELATYPRTETGSGSP-NH2
# SMILES: CC(C)C[C@H](NC(=O)[C@H](C)NC(=O)[C@H](C)NC(=O)[C@@H](NC(=O)[C@H](CO)NC(=O)[C@H](CC(C)C)NC(=O)[C@H](CCC(=O)O)NC(=O)[C@H](CO)NC(=O)[C@H](C)NC(=O)[C@H](C)NC(=O)[C@H](CCC(=O)O)NC(=O)CC[C@H](NC(=O)CCCCCCCCCCCCCCCCCCC(=O)O)C(=O)O)[C@@H](C)O)C(=O)NCC(=O)N[C@@H](CCCNC(=N)N)C(=O)N[C@@H](CC(C)C)C(=O)N[C@@H](CO)C(=O)N[C@@H](C)C(=O)N[C@@H](CCC(=O)O)C(=O)N[C@@H](CC(C)C)C(=O)N[C@@H](Cc1c[nH]cn1)C(=O)N[C@@H](CCC(=O)O)C(=O)N[C@@H](CC(C)C)C(=O)N[C@@H](C)C(=O)N[C@H](C(=O)N[C@@H](Cc1ccc(O)cc1)C(=O)N1CCC[C@H]1C(=O)N[C@@H](CCCNC(=N)N)C(=O)N[C@H](C(=O)N[C@@H](CCC(=O)O)C(=O)N[C@H](C(=O)NCC(=O)N[C@@H](CO)C(=O)NCC(=O)N[C@@H](CO)C(=O)N1CCC[C@H]1C(N)=O)[C@@H](C)O)[C@@H](C)O)[C@@H](C)O
# B4: [N-terminal(C20 diacid-gGlu), des1, 12H, 25H, 30S, 31G]mimylin (peptide)
# peptide: {C20 diacid-γGlu}-ASELSTAALGHLSAELHELATLPHTETGSGSP-NH2
# SMILES: CC(C)C[C@H](NC(=O)[C@H](C)NC(=O)[C@H](C)NC(=O)[C@@H](NC(=O)[C@H](CO)NC(=O)[C@H](CC(C)C)NC(=O)[C@H](CCC(=O)O)NC(=O)[C@H](CO)NC(=O)[C@H](C)NC(=O)CC[C@H](NC(=O)CCCCCCCCCCCCCCCCCCC(=O)O)C(=O)O)[C@@H](C)O)C(=O)NCC(=O)N[C@@H](Cc1c[nH]cn1)C(=O)N[C@@H](CC(C)C)C(=O)N[C@@H](CO)C(=O)N[C@@H](C)C(=O)N[C@@H](CCC(=O)O)C(=O)N[C@@H](CC(C)C)C(=O)N[C@@H](Cc1c[nH]cn1)C(=O)N[C@@H](CCC(=O)O)C(=O)N[C@@H](CC(C)C)C(=O)N[C@@H](C)C(=O)N[C@H](C(=O)N[C@@H](CC(C)C)C(=O)N1CCC[C@H]1C(=O)N[C@@H](Cc1c[nH]cn1)C(=O)N[C@H](C(=O)N[C@@H](CCC(=O)O)C(=O)N[C@H](C(=O)NCC(=O)N[C@@H](CO)C(=O)NCC(=O)N[C@@H](CO)C(=O)N1CCC[C@H]1C(N)=O)[C@@H](C)O)[C@@H](C)O)[C@@H](C)O
# B5: [N-terminal(C20 diacid-gGlu), des1, 23Y, 30S, 31G, 33Y]mimylin (peptide)
# peptide: {C20 diacid-γGlu}-ASELSTAALGRLSAELHELATYPRTETGSGSY-NH2
# SMILES: CC(C)C[C@H](NC(=O)[C@H](C)NC(=O)[C@H](C)NC(=O)[C@@H](NC(=O)[C@H](CO)NC(=O)[C@H](CC(C)C)NC(=O)[C@H](CCC(=O)O)NC(=O)[C@H](CO)NC(=O)[C@H](C)NC(=O)CC[C@H](NC(=O)CCCCCCCCCCCCCCCCCCC(=O)O)C(=O)O)[C@@H](C)O)C(=O)NCC(=O)N[C@@H](CCCNC(=N)N)C(=O)N[C@@H](CC(C)C)C(=O)N[C@@H](CO)C(=O)N[C@@H](C)C(=O)N[C@@H](CCC(=O)O)C(=O)N[C@@H](CC(C)C)C(=O)N[C@@H](Cc1c[nH]cn1)C(=O)N[C@@H](CCC(=O)O)C(=O)N[C@@H](CC(C)C)C(=O)N[C@@H](C)C(=O)N[C@H](C(=O)N[C@@H](Cc1ccc(O)cc1)C(=O)N1CCC[C@H]1C(=O)N[C@@H](CCCNC(=N)N)C(=O)N[C@H](C(=O)N[C@@H](CCC(=O)O)C(=O)N[C@H](C(=O)NCC(=O)N[C@@H](CO)C(=O)NCC(=O)N[C@@H](CO)C(=O)N[C@@H](Cc1ccc(O)cc1)C(N)=O)[C@@H](C)O)[C@@H](C)O)[C@@H](C)O
# B6: [N-terminal(C18 diacid), 5I]mimylin (peptide)
# peptide: {C18 diacid}-EASEISTAALGRLSAELHELATLPRTETGPESP-NH2
# SMILES: CC[C@H](C)[C@H](NC(=O)[C@H](CCC(=O)O)NC(=O)[C@H](CO)NC(=O)[C@H](C)NC(=O)[C@H](CCC(=O)O)NC(=O)CCCCCCCCCCCCCCCCC(=O)O)C(=O)N[C@@H](CO)C(=O)N[C@H](C(=O)N[C@@H](C)C(=O)N[C@@H](C)C(=O)N[C@@H](CC(C)C)C(=O)NCC(=O)N[C@@H](CCCNC(=N)N)C(=O)N[C@@H](CC(C)C)C(=O)N[C@@H](CO)C(=O)N[C@@H](C)C(=O)N[C@@H](CCC(=O)O)C(=O)N[C@@H](CC(C)C)C(=O)N[C@@H](Cc1c[nH]cn1)C(=O)N[C@@H](CCC(=O)O)C(=O)N[C@@H](CC(C)C)C(=O)N[C@@H](C)C(=O)N[C@H](C(=O)N[C@@H](CC(C)C)C(=O)N1CCC[C@H]1C(=O)N[C@@H](CCCNC(=N)N)C(=O)N[C@H](C(=O)N[C@@H](CCC(=O)O)C(=O)N[C@H](C(=O)NCC(=O)N1CCC[C@H]1C(=O)N[C@@H](CCC(=O)O)C(=O)N[C@@H](CO)C(=O)N1CCC[C@H]1C(N)=O)[C@@H](C)O)[C@@H](C)O)[C@@H](C)O)[C@@H](C)O
# B7: [N-terminal(C20 diacid-gGlu), des1, 21S, 23Y, 30S, 31G]mimylin (peptide)
# peptide: {C20 diacid-γGlu}-ASELSTAALGRLSAELHELSTYPRTETGSGSP-NH2
# SMILES: CC(C)C[C@H](NC(=O)[C@H](C)NC(=O)[C@H](C)NC(=O)[C@@H](NC(=O)[C@H](CO)NC(=O)[C@H](CC(C)C)NC(=O)[C@H](CCC(=O)O)NC(=O)[C@H](CO)NC(=O)[C@H](C)NC(=O)CC[C@H](NC(=O)CCCCCCCCCCCCCCCCCCC(=O)O)C(=O)O)[C@@H](C)O)C(=O)NCC(=O)N[C@@H](CCCNC(=N)N)C(=O)N[C@@H](CC(C)C)C(=O)N[C@@H](CO)C(=O)N[C@@H](C)C(=O)N[C@@H](CCC(=O)O)C(=O)N[C@@H](CC(C)C)C(=O)N[C@@H](Cc1c[nH]cn1)C(=O)N[C@@H](CCC(=O)O)C(=O)N[C@@H](CC(C)C)C(=O)N[C@@H](CO)C(=O)N[C@H](C(=O)N[C@@H](Cc1ccc(O)cc1)C(=O)N1CCC[C@H]1C(=O)N[C@@H](CCCNC(=N)N)C(=O)N[C@H](C(=O)N[C@@H](CCC(=O)O)C(=O)N[C@H](C(=O)NCC(=O)N[C@@H](CO)C(=O)NCC(=O)N[C@@H](CO)C(=O)N1CCC[C@H]1C(N)=O)[C@@H](C)O)[C@@H](C)O)[C@@H](C)O
# Key:
# [1] = target: T1, human amylin 3(a) receptor (human calcitonin receptor co-expressed with RAMP-3) (human, UniProt P30988 25-474; O60896 24-148, limits assumed); test: cell-based or functional assay
# T1 sequence (looked up) 1: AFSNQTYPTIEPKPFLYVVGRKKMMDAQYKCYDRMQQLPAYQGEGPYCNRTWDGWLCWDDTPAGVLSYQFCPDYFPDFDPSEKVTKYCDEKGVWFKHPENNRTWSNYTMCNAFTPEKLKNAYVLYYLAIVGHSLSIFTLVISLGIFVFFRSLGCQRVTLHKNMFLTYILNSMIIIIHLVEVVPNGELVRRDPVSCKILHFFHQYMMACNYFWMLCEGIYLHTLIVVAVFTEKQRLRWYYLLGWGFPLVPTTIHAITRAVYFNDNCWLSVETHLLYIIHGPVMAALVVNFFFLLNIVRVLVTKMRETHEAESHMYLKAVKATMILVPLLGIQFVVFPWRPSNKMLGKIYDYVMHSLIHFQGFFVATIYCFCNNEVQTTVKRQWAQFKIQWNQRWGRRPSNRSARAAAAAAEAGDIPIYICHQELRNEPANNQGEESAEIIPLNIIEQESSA
# T1 sequence (looked up) 2: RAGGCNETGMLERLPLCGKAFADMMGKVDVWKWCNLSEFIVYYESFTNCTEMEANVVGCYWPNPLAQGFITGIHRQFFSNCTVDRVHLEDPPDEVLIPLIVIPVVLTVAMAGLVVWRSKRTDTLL
# [2] = target: T2, human calcitonin receptor (human, UniProt P30988 25-474); test: cell-based or functional assay
# T2 sequence (looked up): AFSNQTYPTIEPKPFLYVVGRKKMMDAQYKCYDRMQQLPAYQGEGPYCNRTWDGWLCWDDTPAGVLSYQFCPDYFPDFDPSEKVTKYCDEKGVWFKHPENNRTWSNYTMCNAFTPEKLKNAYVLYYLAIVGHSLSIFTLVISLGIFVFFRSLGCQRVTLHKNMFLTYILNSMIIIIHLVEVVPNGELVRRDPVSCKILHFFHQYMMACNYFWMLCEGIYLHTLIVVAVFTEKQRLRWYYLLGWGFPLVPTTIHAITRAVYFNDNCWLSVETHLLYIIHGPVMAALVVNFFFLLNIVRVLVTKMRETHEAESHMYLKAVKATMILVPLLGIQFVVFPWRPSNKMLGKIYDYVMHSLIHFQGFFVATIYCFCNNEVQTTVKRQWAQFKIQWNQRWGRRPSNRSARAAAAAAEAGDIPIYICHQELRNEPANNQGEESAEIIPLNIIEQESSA
Binder,hAmylin-R funct. EC50 (pM) [1] [pM],hCTR funct. EC50 (pM) [2] [pM]
B1,37,41
B2,9,11
B3,17,15
"{C20 diacid-γGlu}-ASGLSTAALGRLSAELHELATYPRTETGSGSP-NH2 [[N-terminal(C20 diacid-gGlu), des1, 4G, 23Y, 30S, 31G]mimylin]",38,42
B4,26,12
B5,32,29
B6,7,7
B7,33,27
